Ends that are not written are not given here. * marks the point of attachment. Fc = ferrocene monocarboxylic acid coupled as acyl group on the N-terminus, O=C([c-]1cccc1)*.[Fe+2].c1cc[cH-]c1
Biological target: amyloid beta peptide Aβ(1–42) (UniProt P05067 672-713)
Assay: differential pulse voltammetry of the ferrocene tag

t1/2 at [Fc-KLVFFK6]:[Aβ(1–42)] 1:0.25: 1.29 h | t1/2 at [Fc-KLVFFK6]:[Aβ(1–42)] 1:0.5: 1.35 h | t1/2 at [Fc-KLVFFK6]:[Aβ(1–42)] 1:1: 1.53 h | t1/2 at [Fc-KLVFFK6]:[Aβ(1–42)] 1:2: 1.13 h | t1/2 at [Fc-KLVFFK6]:[Aβ(1–42)] 1:4: 1.02 h
B1: ferrocene-tagged β-sheet breaker peptide Fc-KLVFFK6 (peptide)
peptide: Fc-KLVFFKKKKKK

Reference: PMC3565064 (Analytical biochemistry, 2012)
